Reference: US10533050B2, “Methods and compositions for liver cancer therapy” (Institut National de la Sante et de la Recherche Medicale …, priority 2010, dated 2020)

B1: MAb3: murine N-terminal anti-hPG monoclonal antibody, hybridoma 6B5B11C10, VH SEQ ID NO:12, VL SEQ ID NO:13 (antibody, V domains shown)
VH: EVQLQQSGTVLARPGASVKMSCKASGYIFTSYWVHWVKQRPGQGLEWIGGFYPGNSDSRYNQKFKGKATLTAVTSASTAYMDLSSLTNEDSAVYFCTRRDSPQYWGQGTTLTVSS
VL: DVLMTQTPLSLPVSLGDQASISCRSSQSIVHSNGNTYLEWYLQKPGQSPKLLIYKVSNRFSGVPDRFSGSGSGTDFTLKISRLEAEDLGVYYCFQGSHVPFTFGGGTKLEIK
B2: MAb19: murine N-terminal anti-hPG monoclonal antibody, hybridoma 1B3B4F11, VH SEQ ID NO:62, VL SEQ ID NO:66 (antibody, V domains shown)
VH: DVQLQESGPGLVKPSQSLSLTCTVTGYSITSDYAWNWIRQFPGNKLEWMGYISFSGYTSYNPSLKSRISVTRDTSRNQFFLQLTSVTTEDTATYYCAREVNYGDSYHFDYWGQGTIVTVSS
VL: QLALTQSSSASFSLGASAKLTCTLSSQHRTYTIEWYQQQSLKPPKYVMEVKKDGSHSTGHGIPDRFSGSSSGADRYLSISNIQPEDEAIYICGVGDAIKGQSVFVFGGGTKVTVL
B3: MAb8: murine C-terminal anti-hPG monoclonal antibody, hybridoma 1C10D3B9, VH SEQ ID NO:59, VL SEQ ID NO:63 (antibody, V domains shown)
VH: EVQLVESGGGLVKPGGSLKLSCAASGFTFTTYAMSWVRQTPEKRLEWVATISSGGTYTYYPDSVKGRFTISRDNAKNALYLQMSSLRSEDTAMYYCATQGNYSLDFWGQGTSLTVSS
VL: DIVMTQAASSNPVTLGTSASISCRSSKSLRHTKGITFLYWYLQKPGQSPQLLIYQMSNLASGVPDRFSSSGSGTDFTLRISRVEAEDLGVYYCAQNLELPLTFGAGTKLELK

How the values were obtained:
Type in all cases: cell-based
[1] = tested on: side population cells of Huh7 cells; test: Spheroid formation of Huh7 side population cells under low adherence culture conditions; conditions: 5 nM doxorubicin, 9 days; FIG. 9
Description: The dye excluding side population cells of Huh7 cells were isolated as described in Example 8. Side population cells were then seeded into ultra low adherence 96-well plates (200 cells/well) in M11 medium, and grown for 9 days at 37° C. in the presence of control or anti-progastrin polyclonal antibodies (1 μg/ml), 5 nM doxorubicin (a chemotherapeutic agent used in certain liver cancer therapy), or DMSO (vehicle for doxorubicin) (15 wells per condition). The composition of M11 medium was as follows: DMEM/F12-Glutamax (Catalog #31331 Invitrogen); 20 ng/ml EGF (R&D systems); 10 ng/ml FGF (R&D systems); 20 microg/ml Insulin (Sigma); 1/100 dilution of N2 supplement (Catalog #P1510, Gibco); 2 μg/ml ciprofloxacin, 5 μg/ml gentamycin and 3 μg/ml glucose. At the end of the experiment, photomicrographs were taken, and the number of spheres per well counted and the mean and standard deviation calculated.
The dye excluding side population cells of Huh7 cells were isolated as described in Example 8. […] At the end of the experiment, photomicrographs were taken, and the number of spheres per well counted and the mean and standard deviation calculated.

liver cancer cells = test: Neutralizing activity with liver cancer cells; conditions: tests with liver cancer cells
Description: A specific test for assessing whether a particular anti-hPG antibody is neutralizing can be performed as follows. Huh7 hepatocellular carcinoma cells are seeded in ultra low-adherence 24-well plates (500 cells/well) in serum-free M11 medium. Cells are grown at 37° C. and treated twice daily for 7 days with the test anti-hPG antibody or a control, non-specific monoclonal antibody, at antibody concentrations of about 5 μg/mL. At the end of the experiment, photomicrographs are taken, and the number of spheres per well is counted and the median and percentile distribution calculated.

[2] = tested on: PLC/PRL/5 hepatocellular carcinoma cells; test: Spheroid formation of PLC/PRL/5 cells under low adherence culture conditions; conditions: vs control MAb
Description: PLC/PRL/5 hepatocellular carcinoma cells were seeded in ultra low-adherence 24-well plates (220 cells/well) in serum-free M11 medium (DMEM/F12 with 20 ng/ml EGF, 10 ng/ml FGF, 20 μg/ml insulin, N2 supplement, 2 μg/ml ciprofloxacin, 5 μg/ml gentamycin and 3 μg/ml glucose). Cells were grown for 10 days at 37° C., with the daily addition of control or anti-hPG MAb3 monoclonal antibodies (1 μg/ml). At the end of the experiment, photomicrographs were taken, and the number of spheres per well counted and the mean and standard deviation calculated. In one experiment, PLC/PRL/5 hepatocellular carcinoma cells were seeded in ultra low-adherence 96-well plates (35 cells/well) in serum-free M11 medium (DMEM/F12 with 20 ng/ml EGF, 10 ng/ml FGF, 20 μg/ml insulin, N2 supplement, 2 μg/ml ciprofloxacin, 5 μg/ml gentamycin, and 3 μg/ml glucose). […] At the end of the experiment, photomicrographs were taken, and the number of spheres per well counted and the median and percentile distribution calculated. […] At the end of the experiment, photomicrographs were taken, and the number of spheres per well counted and the median and percentile distribution calculated. […] At the end of the experiment, photomicrographs were taken, and the number of spheres per well counted and the median and percentile distribution calculated.

[3] = tested on: Huh7 hepatocellular carcinoma cells; test: Spheroid formation of Huh7 cells after antibody pre-treatment under regular adherence; conditions: pre-treatment with 10 μg/mL, then 5 days without treatment, vs control MAb; FIG. 13A-B
Description: In one experiment, 75,000 Huh7 hepatocellular carcinoma cells/well were first seeded into 6-well plates in MEMα with 10% FCS, serum starved overnight and grown for 60 hours in MEMα+0.5% Pannexin H in the presence of 10 μg/mL anti-progastrin monoclonal antibody MAb8 or control monoclonal antibody (P3X63Ag8, ATCC, Ref TIB-9). At the end of treatment, for each treatment group, 500 cells/well were plated into eight wells of ultra low-adherence 24-well plates in 500 μl of serum-free M11 medium containing bFGF and EGF, and grown for a further 5 days without treatment. At the end of this period, photographs were taken, the number of spheres per well was counted, and sphere surface was measured. […] Thereafter, an operator who was blinded to the identity of all wells counted the spheroids.
In a second experiment, 75,000 Huh7 hepatocellular carcinoma cells/well were first seeded into 6-well plates in MEMα with 10% FCS, serum starved overnight and grown for 60 hours in MEMα+0.5% Pannexin H in the presence of 10 μg/mL anti-progastrin monoclonal antibody MAb16 or a control monoclonal antibody (P3X63Ag8, ATCC, Ref TIB-9). […] At the end of this period, photographs were taken, the number of spheres per well was counted, and sphere surface was measured. […] Thereafter, an operator who was blinded to the identity of all wells counted the spheroids.

| Molecule | Number of spheroids formed [1] | Neutralizing activity (liver cancer cells) | Number of spheroids formed ([2]; 3 μg/ml twice daily, 8 days, FIG. 15A) | Number of spheroids formed ([2]; 6 μg/ml twice daily, 7 days, FIG. 15C) | Ability to grow as spheroids [3] |
| --- | --- | --- | --- | --- | --- |
| COc1cccc2c1C(=O)c1c(O)c3c(c(O)c1C2=O)C[C@@](O)(C(=O)CO)C[C@@H]3O[C@H]1C[C@H](N)[C@H](O)[C@H](C)O1 [Doxorubicin, doxorubicin] | reduce the number of spheroids |  |  |  |  |
| B1 |  | exhibited neutralizing activity |  |  |  |
| B2 |  | exhibited neutralizing activity | significantly reduced |  |  |
| B3 |  | exhibited neutralizing activity |  | significantly reduced | significantly reduced |
